First the molecules themselves.
B1: i7-01s-57 (Ac-[Tat]-RRIQ(R8)MEDVLK(S5)RKR-NH2) (peptide)
peptide: Ac-YGRKKRRQRRRRRIQ[R8]MEDVLK[S5]RKR-NH2
modifications: staple 16-23
SMILES: CC[C@H](C)[C@H](NC(=O)[C@H](CCCNC(=N)N)NC(=O)[C@H](CCCNC(=N)N)NC(=O)[C@H](CCCNC(=N)N)NC(=O)[C@H](CCCNC(=N)N)NC(=O)[C@H](CCCNC(=N)N)NC(=O)[C@H](CCC(N)=O)NC(=O)[C@H](CCCNC(=N)N)NC(=O)[C@H](CCCNC(=N)N)NC(=O)[C@H](CCCCN)NC(=O)[C@H](CCCCN)NC(=O)[C@H](CCCNC(=N)N)NC(=O)CNC(=O)[C@H](Cc1ccc(O)cc1)NC(C)=O)C(=O)N[C@@H](CCC(N)=O)C(=O)N[C@]1(C)CCCCCCC=CCCC[C@@](C)(C(=O)N[C@@H](CCCNC(=N)N)C(=O)N[C@@H](CCCCN)C(=O)N[C@@H](CCCNC(=N)N)C(N)=O)NC(=O)[C@H](CCCCN)NC(=O)[C@H](CC(C)C)NC(=O)[C@H](C(C)C)NC(=O)[C@H](CC(=O)O)NC(=O)[C@H](CCC(=O)O)NC(=O)[C@H](CCSC)NC1=O
B2: i7-01s-02 (Ac-[Tat]-RLIQ(R8)REDREK(S5)RAV-NH2) (peptide)
peptide: Ac-YGRKKRRQRRRRLIQ[R8]REDREK[S5]RAV-NH2
modifications: staple 16-23
SMILES: CC[C@H](C)[C@H](NC(=O)[C@H](CC(C)C)NC(=O)[C@H](CCCNC(=N)N)NC(=O)[C@H](CCCNC(=N)N)NC(=O)[C@H](CCCNC(=N)N)NC(=O)[C@H](CCCNC(=N)N)NC(=O)[C@H](CCC(N)=O)NC(=O)[C@H](CCCNC(=N)N)NC(=O)[C@H](CCCNC(=N)N)NC(=O)[C@H](CCCCN)NC(=O)[C@H](CCCCN)NC(=O)[C@H](CCCNC(=N)N)NC(=O)CNC(=O)[C@H](Cc1ccc(O)cc1)NC(C)=O)C(=O)N[C@@H](CCC(N)=O)C(=O)N[C@]1(C)CCCCCCC=CCCC[C@@](C)(C(=O)N[C@@H](CCCNC(=N)N)C(=O)N[C@@H](C)C(=O)N[C@H](C(N)=O)C(C)C)NC(=O)[C@H](CCCCN)NC(=O)[C@H](CCC(=O)O)NC(=O)[C@H](CCCNC(=N)N)NC(=O)[C@H](CC(=O)O)NC(=O)[C@H](CCC(=O)O)NC(=O)[C@H](CCCNC(=N)N)NC1=O
B3: i7-01s-10 (Ac-[Tat]-RLIQ(R8)REDREK(S5)RAR-NH2) (peptide)
peptide: Ac-YGRKKRRQRRRRLIQ[R8]REDREK[S5]RAR-NH2
modifications: staple 16-23
SMILES: CC[C@H](C)[C@H](NC(=O)[C@H](CC(C)C)NC(=O)[C@H](CCCNC(=N)N)NC(=O)[C@H](CCCNC(=N)N)NC(=O)[C@H](CCCNC(=N)N)NC(=O)[C@H](CCCNC(=N)N)NC(=O)[C@H](CCC(N)=O)NC(=O)[C@H](CCCNC(=N)N)NC(=O)[C@H](CCCNC(=N)N)NC(=O)[C@H](CCCCN)NC(=O)[C@H](CCCCN)NC(=O)[C@H](CCCNC(=N)N)NC(=O)CNC(=O)[C@H](Cc1ccc(O)cc1)NC(C)=O)C(=O)N[C@@H](CCC(N)=O)C(=O)N[C@]1(C)CCCCCCC=CCCC[C@@](C)(C(=O)N[C@@H](CCCNC(=N)N)C(=O)N[C@@H](C)C(=O)N[C@@H](CCCNC(=N)N)C(N)=O)NC(=O)[C@H](CCCCN)NC(=O)[C@H](CCC(=O)O)NC(=O)[C@H](CCCNC(=N)N)NC(=O)[C@H](CC(=O)O)NC(=O)[C@H](CCC(=O)O)NC(=O)[C@H](CCCNC(=N)N)NC1=O

Bridge positions count the residues as written; N and C are the ends. Square brackets hold non-standard residues; d marks the D form. R8 = C=CCCCCCC[C@@](C)(N)C(=O)O; S5 = C=CCCC[C@](C)(N)C(=O)O

For this experiment, the target named is T1, Beclin 1 coiled coil domain (human Beclin 1, residues 176-268) (human, UniProt Q14457 176-268).
T1 construct: range 176-268; also called Beclin 1 coiled coil domain protein
T1 sequence (Q14457 176-268 limits assumed): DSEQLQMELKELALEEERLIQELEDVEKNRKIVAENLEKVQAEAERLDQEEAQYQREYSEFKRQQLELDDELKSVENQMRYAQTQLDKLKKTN
The experiment in a line: ITC, peptide titrated into Beclin 1 coiled coil domain, 25 C, one-site model.
Broadly, the Kd is the constant that tells how readily two partners part at equilibrium. In turn, B1 yielded a Kd of 2200 nM.

On to B2, for which the Kd stood at 860 nM.

For the molecule B3, the Kd was 2030 nM. Against the preceding molecule, the Kd is about 2.4-fold higher.

Ac-YGRKKRRQRRRRLISEL[R8]DREKQR[S5]A-NH2 (staple 18-25) [Tat-SP4 (Ac-[Tat]-RLISEL(R8)DREKQR(S5)A-NH2)] returned a Kd of 3210 nM.

These data come from US20240190920A1 (SHENZHEN RESEARCH INSTITUTE OF THE HONG KONG POLYTECHNIC …, published 2024).
